The nature of data set [1]: in vivo. The following applies: Sprague Dawley, rat.
Method: (§1) Quantitative analysis was performed by measuring the fluorescence intensity in plasma, and using a standard curve to determine concentration (FIG. 9).
The conditions of data set [2]: rat, in vivo; for Cmax: Sprague Dawley.
Method: as §1
The nature of data set [3]: Toxicity evaluation: hematological and biochemical parameters and histology after one month of administration. The conditions noted are these: 2.5 mg/kg.
Data set [4] deals with MDA-MB-231 human breast cancer cell line. The experiment in a line: MTT cytotoxicity assay combined with radiation (4 Gy) and/or caspase inhibitor Z-VAD-FMK. The class given is cell-based. The following applies: by itself, without radiation. The procedure:
The degree of cytotoxicity of DEVD-S-DOX was assessed using an in vitro MTT assay and combined radiation therapy in the MDA-MB-231 human breast cancer cell line. The MDA-MB-231 cell line was irradiated with radiation and the expression of caspase-3 was evaluated. Western blot (FIG. 6A) and a cellular caspase-3 activity assay (FIG. 6B) confirmed that the expression of caspase-3 increased over time.
Next, the cancer cells were cultured in a 96-well microplate at the density of 5×10^4 cell/well in DMEM (10% FBS) medium for 24 hours, and then treated with DEVD-S-DOX or 5 μM Doxorubicin. Some of the test groups were also treated with Z-VAD-FMK, which is a caspase inhibitor. Then cells were irradiated with 4 Gy of radiation, and after 24 and 48 hours, cell viability was assessed against the controls using an MTT assay (FIG. 7). […] This confirmed that caspase-3 was expressed via radiation therapy in the cancer cells, which then activated DEVD-S-DOX and led to a synergistic cytotoxic effect.
On the technique in general: Formazan colour is commonly taken as a measure of viable cells.

The subject of data set [5] is human breast cancer cells MDA-MB-231. The experiment in a line: MTT cytotoxicity assay with or without human recombinant caspase-3. The conditions noted are these: read-out: IC50 cytotoxicity (MTT); pretreated with caspase-3 (500 ng/mL), 48 hours.
Method: The cytotoxicity of DEVD-S-DOX in human breast cancer cells MDA-MB-231 was assessed using MTT assay with or without the treatment with human recombinant caspase-3. After the cancer cells were placed on a 96-well microplate at the concentration of 5×10^4 cell/well and cultured in DMEM (10% FBS) media for 24 hours, doxorubicin, DEVD-S-DOX, and DEVD-S-DOX, pre-treated with caspase-3 (500 ng/mL), were added at concentrations ranging from 0.01-100 μM, and further cultured for 48 hours. After that, 10 μL of MTT agent were added to each well and cultured for 2 hours at 37° C. until a blue precipitate forms. At this point, 100 μL of detergent agent was added and cultured for 4 hours at room temperature. Optical density was measured in each well at 570 nm to determine cell viability.
Data set [6] relates to MDA-MB-436 xenograft. The experiment in a line: MDA-MB-436 xenograft, daily oral dosing with or without olaparib. The conditions noted are these: monotherapy, 50 mg/kg intraperitoneal, 5 days on/2 days off for two weeks. It is filed as in vivo, female NSG SCID mouse. The protocol:
Human breast cancer MDA-MB-436 cells were transplanted into a female NSG SCID mouse, and when the cancer tumor size reached 100-150 mm^3, 3 mg/kg of DEVD-S-DCX/DCK (based on the docetaxel content), was orally administered daily. 50 mg/kg of olaparib was administered by intraperitoneal injection daily for the first five days of every week for two weeks (5 days on/2 days off). In addition, a test group without olaparib was daily orally administered 3 mg/kg DEVD-S-DCX/DCK (based on the docetaxel content).

Like-named read-outs stand apart in the source and are kept apart here. *1 amine or outer side, *2 acyl side, *3 side chain or, on linkers, in order; H or OH if unused. Where a SMILES comes first, the peptide text is derived from it. [ ]: non-standard residue; d: D form. The star is where a group is joined. Doxorubicin(3'-N) = COc1cccc2c1C(=O)c1c(O)c3c(c(O)c1C2=O)C[C@@](O)(C(=O)CO)C[C@@H]3O[C@H]1C[C@H](N*)[C@H](O)[C@H](C)O1; PABC = O=C(OCc1ccc(N[*:1])cc1)[*:2]

For `COc1cccc2c1C(=O)c1c(O)c3c(c(O)c1C2=O)C[C@@](O)(C(=O)CO)C[C@@H]3O[C@H]1C[C@H](NC(=O)OCc2ccc(NC(=O)[C@H](CC(=O)O)NC(=O)[C@@H](NC(=O)[C@H](CCC(=O)O)NC(=O)[C@H](CC(=O)O)NC(=O)CNC(=O)[C@H](CCCCN)NC(C)=O)C(C)C)cc2)[C@H](O)[C@H](C)O1` [DEVD-S-DOX, Ac-KGDEVD-PABC-Doxorubicin] (Ac-KGDEVD[PABC]-{Doxorubicin(3'-N)}), in data set [1] (iv, 1 mg/kg), the AUC(0-inf) (usually the area under the concentration-time curve extrapolated to infinity) stood at 3370 ± 250 ng·h/mL; the AUC(0-t) (in general, the area under the concentration-time curve up to a stated or last time point) is 3110 ± 290 ng·h/mL; the MRT (in general, a mean duration of stay, worked out from the concentration-time curve) worked out at 2.01 ± 0.28 h. In addition, in data set [1] (po, 10 mg/kg), the AUC(0-inf) is 130 ± 60 ng·h/mL; the AUC(0-t) is 100 ± 50 ng·h/mL; the MRT turned out to be 1.18 ± 0.03 h; the Tmax (in general, the time at which the peak concentration occurs) is 1 h. In data set [1] (po, 10 mg/kg), the bioavailability (commonly the share of a dose that reaches the circulation, judged against a reference dose that is usually intravenous) amounted to 0.45 ± 0.22%. In addition, the Cmax – broadly, the peak of the concentration-time curve – in data set [2] (iv, 1 mg/kg) came to 3370 ± 310 ng/mL. In data set [2] (po, 10 mg/kg), the Cmax came out at 72 ± 33 ng/mL and the “BA (bioavailability)” value is “negligible bioavailability”. The compound further came in with a BASO in data set [3] of 1.0 ± 0.5%. In data set [3] (normal range 1.0-5.0), the MONO turned out to be 6.8 ± 1.7%. This compound also yielded a WBC in data set [3] (normal range 4.0-15.0) of 12.8 ± 5.4 m/mm^3. Further, the RBC in data set [3] (normal range 6.0-11.0) is recorded as 7.1 ± 1.4 M/mm^3. In addition, the Segment in data set [3] (normal range 10.0-30.0) was found to be 18.2 ± 0.7%. Besides, the MCH in data set [3] (normal range 13.0-22.0) is reported as 16.4 ± 1.8 pg. In data set [3] (normal range 14.0-18.0), this compound returned a Hb of 11.4 ± 1.3 g/dL. Besides, the MCHC in data set [3] (normal range 24.0-40.0) was found to be 33.4 ± 3.8 g/dL. Also, in data set [3] (normal range 35.0-45.0), the Hct is 35.1 ± 7.2%. Besides, the MCV in data set [3] (normal range 35.0-50.0) is listed as 49.2 ± 7.2 fL. The compound further displayed a Lympho in data set [3] (normal range 70.0-81.0) of 71.0 ± 4.9%. This compound registered a Platelet in data set [3] (normal range 600-1000) of 1008 ± 392 m/mm^3. Further, the EOS in data set [3] (normal range <10.0) is 2.8 ± 1.4%. For the same compound, in data set [4], the “cytotoxicity (MTT)” value is recorded as “did not show any noticeable cytotoxicity”. In addition, the IC50 (usually the point on the concentration scale where inhibition reaches its midpoint) in data set [5] turned out to be 1780 nM.

Regarding `O=C(c1cc(Cc2n[nH]c(=O)c3ccccc23)ccc1F)N1CCN(C(=O)C2CC2)CC1` [olaparib], the tumor growth suppression entry in data set [6] is given as “ineffective”.

The values above are taken from patent publication US20200022997A1, “ORAL ANTICANCER PRODRUGS, THEIR PREPARATION METHODS AND APPLICATIONS” (Seoul National university R&DB Foundation, priority 2018, published 2020).
